Among the data in the supplement of paper PMC12042874 are amyloid nucleation score values, retold here.

± gives the uncertainty stated by the source.

The nature of the data set: amyloid nucleation score (Sup35N fusion, yeast selection) (log enrichment); library NNK2; higher = more nucleation; inactive = no reads after selection. The essentials:
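The nucleation score is the DiMSum log enrichment of output over input reads, centred on the mode score of non-aggregating sequences. Only sequences with 100 or more input reads were scored, using Illumina sequencing of input and output plasmid inserts. Psi-negative yeast expressing Sup35N fused to peptides of 20 random codons were induced 24 hours with 100 μM copper sulfate and grown 7 days at 30°C on medium lacking adenine and uracil.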
Substance RLNVKDYFCYIAQESKTTDR registered an amyloid nucleation score of 4.76 ± 0.083.
Under RLRIMYSTLLATGMV stands 0.178 ± 0.5; under RLRMSMIISLINLRLCGLML, 1.03 ± 0.53.
Under RLRTKCYFNCCNGHYLEFGG stands 9.489 ± 0.067; under RLSLGLYINALRC, 1.01 ± 0.51.
In the case of RLSVLD, the amyloid nucleation score worked out at 1.34 ± 0.21.
RLTDLVSMVSLNPLYFMWSS displayed an amyloid nucleation score of -0.08 ± 0.3.
Regarding RLVPISKNRVGMNWSASLSL, the amyloid nucleation score came out at 0.012 ± 0.15.
With RLVSKEATCPR, the amyloid nucleation score is -0.058 ± 0.54.
Under RLYVKWSNSISDSRSLCVP stands 0.208 ± 0.16; under RMDVSYLAFVWSHN, 3.5 ± 0.056; under RMLCSHINYLIVGMG, -0.061 ± 0.28.
Under RMRCLDSVQGLNLIHTDVSV stands “inactive”; under RMVMSE, 0.16 ± 0.31; under RMVRGLAFGDFWASSMRKYP, 0.241 ± 0.33.
Under RMVVVVSKRY stands 1.73 ± 0.17; under RMYLVGMLMHSLLEEMSKTA, 4.76 ± 0.083.
In the case of RNALDTDAAE, the amyloid nucleation score was 0.323 ± 0.55.
Under RNFDRGWSHR stands 0.319 ± 0.4; under RNGVLTEARHLSVSGEERRV, -0.316 ± 0.8.
Under RNHVAHH stands 2.17 ± 0.21; under RNSCFVLSFMGWFVHYHFRF, -0.317 ± 0.79.
Substance RNSLEFTDTRCNQPGQCESG displayed an amyloid nucleation score of 0.641 ± 0.4.
Under RNVACFSAVT stands -0.283 ± 0.63; under RPAFTNLRQCQRAYPVGGRC, 0.195 ± 0.53; under RPIKRV, 0.173 ± 0.2.
In turn, RPISLCALYWLNLRANIHCR came in with an amyloid nucleation score of 0.144 ± 0.56.
RPKTEDCGLNLSTVLNQVGH: the amyloid nucleation score worked out at 0.111 ± 0.19.
Under RPNLLSDILPRGLMAKSMHF stands 0.107 ± 0.79; under RPYNPFPLCILRWRPELL, “inactive”; under RRALIWIAIHECIRTTPHLL, -0.434 ± 0.76.
Under RRFVCRCFRYTHECVLGCFG stands 1.52 ± 0.33.
RRGENIDESVRVVEWGVDVM displayed an amyloid nucleation score of 0.64 ± 0.47.
Under RRGTQVFCCDYWSARGSWT stands 8.749 ± 0.062.
Under RRKHLWRQRLWTR stands -0.425 ± 0.63; under RRPCLS, -1.09 ± 0.63.
Under RRPIGDW stands 0.169 ± 0.36; under RRRRSGLCRAYVNVLNARTR, 0.79 ± 0.41.
Substance RSAILEEDFDCHMYWGL registered an amyloid nucleation score of 0.916 ± 0.31.
Under RSCFPCSCK stands 0.472 ± 0.31; under RSCFPMIIALVRFDVFGDCY, -0.339 ± 0.31.
Under RSDSVYSIGCSNENRQSGRA stands 1.21 ± 0.2; under RSFEVKLFARSLKHIPDLTP, 1.02 ± 0.35; under RSGCQMKCITYRGRAGGHLV, 0.882 ± 0.31.
Under RSICVYTIRYLFSH stands -0.513 ± 0.3; under RSIRCVYKF, -0.465 ± 0.29.
Substance RSKDYVFFCFSCTNWLC came in with an amyloid nucleation score of 8 ± 0.082.
Regarding RSLDQSIVNRVVVYFSGWCV, the amyloid nucleation score was 3.62 ± 0.073.
In the case of RSLGVSAL, the amyloid nucleation score entry was “inactive”.
Under RSPCIWLWFLNAACHKCVLM stands 0.752 ± 0.43; under RSPMWLAGLMNIYSP, 2.87 ± 0.084.
Under RSPRHQNQDPRLKGRNARSP stands 2.49 ± 0.086.
RSRVLILCDEGRNCVL: the amyloid nucleation score is -0.533 ± 0.42.
Under RSSADAPVY stands -0.864 ± 1.1; under RSTLPGRRFFIGNILYN, -0.578 ± 0.78.
Under RSWIGERIIYSSMRYQCAYL stands -1.42 ± 0.54; under RTCTFVCRGM, 2.86 ± 0.1; under RTGLTRYLLYFPV, 0.326 ± 0.22.
